Experimental data reported in the DeepSol protein solubility set.

Experiment: soluble on expression in E. coli; label from the status in PepcDB or PDB records

Soluble on expression in E. coli, not soluble:
MGSDKIHHHHHHLIQYAQAVMRHEAVAAIVAEIVARYQAIADDFELEASIMAAIEEELDQLPKLTFKNNDYLMAGFKARGEKLNAFLMTAVLNHEGIEATYGEPKSLGIVVTDHPNDAEVSRETYRNLATFRRPIGVLVVPGFYGYTSDDDIATFSRGGSDITGAILANGFHADLYENFTDVDGVAAADPRVVANPQMIREMTYREMRELSYGGFGVFHDEAILPAIAGQVPINLKNTNHPAAPGTMIVPEQHFVPKHAITGIVSSQHFGAIYLHRYLLNKEVGFTLKILQVLAHNGISYEHMPSGIDDLTIILDDRQLTEAKRKTICAEIQAAVHPDVLKWIDDYAIIMVVGEGMAQRTGLIQTILQPLATAGVHVSMINEGASQISLMLGTSRESANRAVKTIYNAFFIPINQRLEVH, MGSDKIHHHHHHLISTANITMQFGPEPLFENISAKFGNGNRYGLIGANGCGKSTFMKILSGALAPTSGNVSITPGLKVGTLSQDQFAFEQYTVIDAVIMGDVQLWKVKQERDAIYAKADMTEEDGMRVGDLESEFAEMDGYSAESRAGEILIEAGIEESFHYGPMSQVAPGWKLRVLLAQALFANPDILLLDEPTNNLDIHTISWLETELNKRKCTMIIISHDRHFLNAVCTHMADIDYGELRIYPGNYEYFLAQSSLLREQLLAGNAKKSAEIEELQDFVNRFGANASKAKQASSRAKRMDKIKLDEVKSSSRITPSIRFAAGKKMHRQALVLENLGHGFDGELLFQGGDLILEAGAKLAIIGENGVGKTTLLRCLVNELIHNEGTIKWSENASIGYCPQDSTSDFDNDLTIMEWMDQWRQPKHNDLMVRAMLGRLLFTEDDANKKAKNCSGGEKNRLIFGKLMMQDINVIIMDEPTNHMDMEAIEALNNALKDFEGTLIFVSHDREFVSSLATRIIDIKDKKLINFQGTFDEYLSSQADIMARQHA, MGSDKIHHHHHHLKEAILSPRFYTTDFKAIDRLEIDRNGLRDEFDWIRDEFAYDYNRTHFRRTDEFLQDFDDMPERDSFIDFLERSCTAEFSGCLLYAEMVKHLHDPTLRAIFKYMSRDEGRHAGFLNRTMADLNVALDLTVLQKRKKYTYFQPKFIFYSVYLSEKIGYSRYITIYRHLERNPQYCIHPIFKWFEQWCNDEYRHGEFFALLMRSQPEMLEGVNRRWIRFFLLAVYATMYLNDARRSNFYAALGLDWRDYDQTVIRLCNDIATQVYPETMNLDDPRFFAYMDKLVEYDRALRALESRKDPIAMAHSTRLKAAIALRLLAIYRLPTRKTTEAIRWKGLPGFPNYPGPNRPQRVVAAD, MGSDKIHHHHHHLMCCASRSVPRWPDNIFTEFLSPKRALGPEPCRPRMTPFWRAGQLCPSVQDRRVFSCEPPCAVFPRWRTMRRAYLLKQEVLPMKISVIGASRGIGRKVVEEALERGHSVTGMARSATSLGIDHAEFTAIDGDATNATDVTQAIDGADAVILTLGVPKDARVLKSTTLFSDATRTLITAMEEAGIKRLLTVTGFGAGDSKEKLSTPERLTQKAFLGRAYADKDLQEKLIRDSDLDWTIARPGILSDNRKSNAYKVLVEKETWRNGLINRSDVADFLVTAAEDESHIHKTPALQR, MGSDKIHHHHHHLNAAAQTTPEIRRPQLGWTMLETPRFLSETALLALAWPMLAKAPQGDGHPVMVLPGFATNDTMTVLLRSFLARLGYQVFPWDLGWNLDQHSAGENGEHLAARIDAIAAETGRKVSLVGWSLGGVIAREAARRDHGGLRQVVTLGSPFTGNPRATSLTSLYELLTGNKASSEKSAARYARGHHPLPVPSTAIFSRTDGITAWENCVSETDDRTENIEVHCSHFGFVANPGVFWAVADRLAQPEGQWRKFDPKGCFAAFYP, MGSDKIHHHHHHLSIARETGSILLIPSTTTLRRAFDFETTFNDSIQFVGEDLSRQLAEDLNASKITLTSCCAYRNLSTILFNDSRIIERIDGYFQNFRYFHPDSQKIVKKLFTFMDPVRKRVSFWNIIYWNIHPTNHRKKPEKSTVSIFSFVTFQLRVDEFLENVGISLTVRNARVIETNVANDDQALELPEEDAFAKTMMVGVHIRHGMDISMNSRNRIHGHVDTPIEYYKRAIQQISKIYENVAFIICSDNVAWARRNLKLGKETLHFFCPGPREVDMAILKSCDSVIISTGTFGWWSAYLNVNASPDVYYYKHWPAPGSVMEKMTNKTEYF
